Reference: IntAct's records for PubMed 21295698

Experiments:
ogt1_human OGT [1] = target: ogt1_human OGT (UniProt O15294)
ogt1_human OGT [2] = target: ogt1_human OGT (UniProt O15294); remark: listed apart in the source

UniProt O15294, sequence (O15294 whole entry): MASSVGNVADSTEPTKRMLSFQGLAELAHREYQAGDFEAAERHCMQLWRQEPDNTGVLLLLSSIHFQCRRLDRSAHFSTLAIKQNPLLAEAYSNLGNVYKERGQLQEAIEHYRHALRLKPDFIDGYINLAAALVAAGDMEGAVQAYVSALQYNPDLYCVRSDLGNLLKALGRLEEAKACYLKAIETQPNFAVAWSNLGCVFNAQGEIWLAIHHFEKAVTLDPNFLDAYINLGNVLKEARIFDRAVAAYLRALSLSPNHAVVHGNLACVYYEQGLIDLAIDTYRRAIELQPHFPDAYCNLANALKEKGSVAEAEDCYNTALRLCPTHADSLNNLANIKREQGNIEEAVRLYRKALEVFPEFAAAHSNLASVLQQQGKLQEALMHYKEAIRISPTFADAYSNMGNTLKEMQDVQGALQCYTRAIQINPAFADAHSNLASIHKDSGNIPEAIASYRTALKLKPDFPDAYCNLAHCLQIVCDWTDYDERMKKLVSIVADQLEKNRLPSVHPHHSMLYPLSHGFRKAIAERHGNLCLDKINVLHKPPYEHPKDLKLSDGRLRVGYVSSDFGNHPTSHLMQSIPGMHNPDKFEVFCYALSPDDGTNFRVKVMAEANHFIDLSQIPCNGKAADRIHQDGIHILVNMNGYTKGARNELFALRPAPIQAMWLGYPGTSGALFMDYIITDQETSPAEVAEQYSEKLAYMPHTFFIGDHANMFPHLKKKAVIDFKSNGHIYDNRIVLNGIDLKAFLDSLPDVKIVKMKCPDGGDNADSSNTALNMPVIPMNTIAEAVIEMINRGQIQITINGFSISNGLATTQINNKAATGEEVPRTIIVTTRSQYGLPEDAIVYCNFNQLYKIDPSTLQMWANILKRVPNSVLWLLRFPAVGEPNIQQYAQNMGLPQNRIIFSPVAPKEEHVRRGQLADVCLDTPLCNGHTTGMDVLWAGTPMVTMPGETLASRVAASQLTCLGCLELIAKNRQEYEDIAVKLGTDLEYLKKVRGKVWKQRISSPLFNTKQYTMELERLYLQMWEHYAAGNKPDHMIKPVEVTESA

Row | effect of a mutation on the interaction (ogt1_human OGT [1]) | effect of a mutation on the interaction (ogt1_human OGT [2]) | Substance
1 | disrupting interaction | increasing interaction | Host cell factor 1 (Homo sapiens), P51610 E1081A
2 | decreasing interaction | – | Host cell factor 1 (Homo sapiens), P51610 P1078A
3 | decreasing interaction | – | Host cell factor 1 (Homo sapiens), P51610 P1079A
4 | decreasing interaction | – | Host cell factor 1 (Homo sapiens), P51610 H1083A

More lines, now with the values behind:

Row | Substance | effect of a mutation on the interaction (ogt1_human OGT [1]) | effect of a mutation on the interaction (ogt1_human OGT [2])
5 | Host cell factor 1 (Homo sapiens), P51610 T1085A | decreasing interaction | –
6 | Host cell factor 1 (Homo sapiens), P51610 C1080A | decreasing interaction | –
7 | Host cell factor 1 (Homo sapiens), P51610 C1075A | decreasing interaction | –
8 | Host cell factor 1 (Homo sapiens), P51610 T1082A | decreasing interaction | –
9 | Host cell factor 1 (Homo sapiens), P51610 T1087A | disrupting interaction | –
10 | Host cell factor 1 (Homo sapiens), P51610 N1077A | decreasing interaction | –
11 | Host cell factor 1 (Homo sapiens), P51610 T1092A | disrupting interaction | –
12 | Host cell factor 1 (Homo sapiens), P51610 T1088A | disrupting interaction | –
13 | Host cell factor 1 (Homo sapiens), P51610 T1090A | disrupting interaction | –
